Results on 1 substance are retold here after patent publication US20130149312A1, “COMPOSITIONS AND METHODS FOR TREATING COPD EXACERBATION” (MCMASTER UNIVERSITY, priority 2010, published 2013).

Assay [1] has as its target T1, IL-1R1 (Mus musculus, UniProt P13504).
T1 construct: from tissue; host or cells: living Balb/c mice (lung / systemic), read-out BAL cell counts
T1 sequence (P13504 20-576): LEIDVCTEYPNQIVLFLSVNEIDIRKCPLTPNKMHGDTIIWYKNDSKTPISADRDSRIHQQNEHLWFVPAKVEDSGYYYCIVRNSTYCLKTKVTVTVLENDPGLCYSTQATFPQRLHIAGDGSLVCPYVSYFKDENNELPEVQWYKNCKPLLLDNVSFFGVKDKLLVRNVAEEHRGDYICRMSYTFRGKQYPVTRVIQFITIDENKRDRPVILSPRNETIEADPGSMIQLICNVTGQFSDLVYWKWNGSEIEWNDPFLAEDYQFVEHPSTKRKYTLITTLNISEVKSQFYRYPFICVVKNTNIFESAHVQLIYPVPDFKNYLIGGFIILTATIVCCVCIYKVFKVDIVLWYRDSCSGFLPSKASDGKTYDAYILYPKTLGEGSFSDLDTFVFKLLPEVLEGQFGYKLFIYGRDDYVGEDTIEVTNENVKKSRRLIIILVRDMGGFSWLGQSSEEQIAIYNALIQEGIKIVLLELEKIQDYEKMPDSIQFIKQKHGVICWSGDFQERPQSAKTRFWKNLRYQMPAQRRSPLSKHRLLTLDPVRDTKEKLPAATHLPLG
In words: IL-1beta-induced neutrophil mediated inflammation in the mouse lung (BAL). The class given is in vivo. Conditions: Balb/c mice; anakinra subcutaneously 1 hour before IL-1beta 5 ng/50 μl intratracheally; BAL after 4 hours; vs control IL-1 treated animals. How it is done:
As noted above, the effect of IL-1R1 antagonist treatment on an IL-1beta-induced neutrophil mediated inflammation in the mouse lung was also examined (FIG. 1B). Anakinra (KINERET™) was dosed subcutaneously one hour before a treatment of IL-1beta of 5 ng/50 μl. After four hours, cell counts were obtained by BAL. Anakinra reduced the cell count by 71% compared to control IL-1 treated animals.
Mice were adult Balb/c females. Anakinra was dosed subcutaneously one hour before IL-1beta was administered intratracheally to the mouse lung using a dose of 5 ng in 50 ul. After 4 hours, the lungs of the mouse were lavaged, essentially as for the acute smoke model (example 2), and total cells and differential cell counts performed.

Assay [2] has as its target T1, IL-1R1. In words: Acute tobacco smoke model of lung inflammation (BAL cells). The class given is in vivo. Conditions: Balb/c mice; smoke twice daily; BAL day 5; 35F5/MAB005 15 mg/kg i.p. once daily; anakinra 48 mg/kg/day s.c. by ALZET pump. The source says:
The antibody 35F5 is a monoclonal antibody which binds to mouse IL-1R1 and prevents the binding of both IL-1beta and IL-1alpha to the receptor IL-1R1Anakinra antagonises the effects of both IL-1beta and IL-1alpha. […] The data shown in this example confirms that inhibition of IL-1R1 by 35F5 decreases inflammation in an acute model of murine lung inflammation, induced by a stimulus relevant to COPD such as smoke. This is consistent with previous observations in the public domain, and with other studies using IL-1Ra (anakinra; IL-1 receptor antagonist). In this mouse model, cigarette smoke causes significant increases in neutrophil BAL cell numbers after 4 days of smoke inhalation. To investigate the effects of IL-1R1 pathway inhibition on the acute inflammatory response to cigarette smoke inhalation, Balb/c mice were exposed to cigarette smoke twice daily (for 50 minutes) […] and dosed intraperitoneally once daily with either 35F5, isotype control rat IgG1 (MAB005), or saline, starting 48 hours before the first smoke exposure and continuing for 4 days. On Day 5, animals were terminated and BAL was performed. An additional treatment arm was included in which animals were exposed to cigarette smoke as above but dosed sub-cutaneously (SC) continuously with anakinra using infusion pumps (ALZET) starting dosing 48 hours prior to the first smoke exposure. […]

Assay [3] has as its target T2, IL-1R (Homo sapiens, UniProt P14778).
T2 sequence (P14778 18-569): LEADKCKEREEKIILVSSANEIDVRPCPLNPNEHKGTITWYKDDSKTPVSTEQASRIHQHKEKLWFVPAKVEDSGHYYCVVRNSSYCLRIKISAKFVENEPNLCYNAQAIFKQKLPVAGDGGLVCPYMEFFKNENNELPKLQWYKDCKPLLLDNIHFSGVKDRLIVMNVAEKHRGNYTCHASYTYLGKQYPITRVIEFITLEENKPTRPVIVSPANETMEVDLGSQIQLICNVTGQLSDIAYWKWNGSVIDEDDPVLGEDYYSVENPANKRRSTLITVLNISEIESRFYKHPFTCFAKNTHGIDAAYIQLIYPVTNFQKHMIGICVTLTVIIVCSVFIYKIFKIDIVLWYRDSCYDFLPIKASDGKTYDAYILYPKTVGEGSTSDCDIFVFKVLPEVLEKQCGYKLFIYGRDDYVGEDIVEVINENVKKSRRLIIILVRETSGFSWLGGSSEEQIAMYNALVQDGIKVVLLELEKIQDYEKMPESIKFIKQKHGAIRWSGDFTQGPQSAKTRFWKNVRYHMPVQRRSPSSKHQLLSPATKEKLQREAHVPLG
In words: Smoke conditioned medium induced IL-8 release in BEAS-2B cells. The class given is cell-based. The following applies: 20% smoked medium, 24 hours. As to the method: (§1) The inflammatory response of epithelial cell in vitro was measured in response to smoke conditioned medium, or smoke conditioned medium and virus. The smoke conditioned medium was generated by bubbling cigarette smoke through tissue culture (TC) medium, and is referred to later in this example as ‘smoke’ or ‘smoke treatment’ of the cells. One cigarette with the filter removed bubbled through 25 mL medium is equal to 100% smoked medium. Cigarette smoke treated medium was titrated for IL-8 release and cell confluence on BEAS-2b cells. 20% smoked medium was used for all experiments as it induced pro-inflammatory cytokine release without significant cell death.
(§2) To examine the role of IL-1R in smoke and virus induced inflammation, cells were first smoke treated with a pre-treatment of IL-1R antagonist, and then as required, infected with HRV virus with another pre-treatment of IL-1R antagonist, anakinra. (FIGS. 10A and 10C).
(§3) A lit cigarette (no filter) was connected by tubing to a falcon tube (50 ml capacity) containing tissue culture medium which was supported in a glass flask. A peristaltic pump drew the smoke through the tubing and into the tissue culture medium. The waste smoke was drawn into a beaker of detergent. The whole procedure was performed within a fume cupboard to protect the operator and other users of the lab. The procedure was therefore not sterile. […]

For assay [4], the target named is T1, IL-1R1. In words: Inhaled LPS model of acute lung inflammation (BAL cells). The following applies: Balb/c mice; anakinra by ALZET osmotic pump from 48 hours before inhaled LPS; BAL 48 hours after challenge; vs control LPS treated mice; P<0.001. The class given is in vivo. From the text: Lipopolysaccharide (LPS) is a component of bacterial cell walls of gram negative bacteria. […] The effect of an IL-1R1 antagonist, anakinra, was examined in a mouse model of LPS mediated inflammatory cell influx into the lung. Anakinra inhibited LPS mediated inflammatory cell influx as measured by BAL total cells into the lung by 47% compared to control LPS treated mice (P<0.001) (FIG. 7).
Anakinra was delivered using an ALZET osmotic pump as described for acute smoke model, and was also administered to the mice 48 hours before the LPS administration. Mice were adult female Balb/c mice.
The mice were placed in a semi-open exposure inhalation box (max 10 mice) and were exposed once to aerosolised LPS—total inhalation session time 12 minutes. P. aeriginosa LPS was used at a concentration of 5 mg/ml and was aerosolised using a nebuliser (such as a PariStar Jet Star nebuliser), filled with 5 ml volume and flow from the nebuliser was 5 l/min (Pressure=2 bar). The control groups received the same procedure but with PBS. […] The BAL was then centrifuged—the cell pellet was analysed using standard automated cell counting and differential cell counting. […] The significance of differences between groups was calculated using Student's T test with one-tailed distribution and two-sample unequal variance. […]

Assay [5] has as its target T3, IL-1R1 (Homo sapiens, UniProt P14778).
T3 sequence (P14778 18-569): T2 sequence (P14778 18-569)
Briefly: HRV14-induced IL-8 release in BEAS-2b/H292 epithelial cells. Conditions: BEAS-2b/H292 cells; PEG purified HRV14; anakinra 25 nM (FIG. 8B).
Procedure: To investigate the role of IL-1 in human rhinovirus (HRV)-mediated inflammatory response, PEG purified HRV14 was used to infect BEAS-2b/H292 cells (human cells available from the ATCC) while those cells were being exposed to an IL-1R antagonist (FIG. 8A). […] A prototypic inflammatory mediator IL-8 (CXCL-1) was examined after treatment and HRV14 infection of the cells (FIG. 8). […] The concentration of anakinra used on the cells was 25 nM.
Cells used for epithelial smoke and virus work were BEAS-2B cells obtained from ATCC (catalogue number CRL-9609) and grown as per suppliers instructions, or H292s from ECACC (catalogue no 91091815 NCI-H292) also grown according to suppliers instructions. […]
Cells were seeded onto collagen coated flat clear bottomed plates and were incubated at 37° C. […] Anakinra or media was replaced onto cells in 100 ul and the virus was added 30 minutes later at a dilution determined by titres of virus stock on HeLa OHIO cells to determine equivalent activity for each batch made in an additional 100 ul . […]
IL-8 was measured in supernatants using ELISA kit (R&D Systems Duoset DY208) according to manufacturer's instructions and using R&D recombinant protein as standards for the assays.

Assay [6] addresses T2, IL-1R. Briefly: Smoke plus HRV virus induced IL-8 release in BEAS-2B cells. Conditions: 20% smoked medium then HRV, different anakinra concentrations. The class given is cell-based. How it is done: as §1, §2, §3

For anakinra, in the assay with IL-1R1 [1], the “inhibition of IL-1beta-induced increase of neutrophils / cell count in BAL” value worked out at 71%. For the same substance, the “tobacco smoke-induced acute inflammatory cell infiltration in BAL” value in the assay with IL-1R1 [2] was “significantly inhibited”. The figures for the “smoke-induced IL-8 response” value with IL-1R [3] and with IL-1R [3] (listed as Anakinra) were “dose dependent effect” and “partial inhibition”, respectively. In addition, in the assay with IL-1R1 [4], the “inhibition of LPS mediated inflammatory cell influx (BAL total cells)” value is reported as 47%. The “IL-8 levels after HRV14 infection” value with IL-1R1 [5] is “reduced”. The “combined smoke and virus IL-8 response” value with IL-1R [6] is “Concentration dependent and complete inhibition”.
